± gives the uncertainty stated by the source.
B1: Proto-oncogene vav, residues 782 to 842; numbered along this chain, P15498 (parent)
chain: KYFGTAKARYDFCARDRSELSLKEGDIIKILNKKGQQGWWRGEIYGRVGWFPANYVEEDYS

Variants of: B1
Assay: abundance fitness (aPCA) (normalised: wild type 0, dead -1); higher = more abundant; growth selection in yeast, the domain comes from the species named
Details: Homo sapiens

Row | Variant | abundance fitness
1 | KYFGTAKARYDFCARDRSELSLKEGDPIKILNKKGQQGWWRGEIYGRVGWFPANYVEEDYS [I27P] | -0.557 ± 0.23
2 | KYFGTAKARYDFCARDRSELSLKEGDVIKILNKKGQQGWWRGEIYGRVGWFPANYVEEDYS [I27V] | 0.065 ± 0.07
3 | KYFGTAKARYDFCARDRSELSLKEGDMIKILNKKGQQGWWRGEIYGRVGWFPANYVEEDYS [I27M] | -0.192 ± 0.12
4 | KYFGTAKARYDFCARDRSELSLKEGDFIKILNKKGQQGWWRGEIYGRVGWFPANYVEEDYS [I27F] | -0.44 ± 0.23
5 | KYFGTAKARYDFCARDRSELSLKEGDWIKILNKKGQQGWWRGEIYGRVGWFPANYVEEDYS [I27W] | -0.324 ± 0.12
6 | KYFGTAKARYDFCARDRSELSLKEGDYIKILNKKGQQGWWRGEIYGRVGWFPANYVEEDYS [I27Y] | -0.294 ± 0.14
7 | KYFGTAKARYDFCARDRSELSLKEGDKIKILNKKGQQGWWRGEIYGRVGWFPANYVEEDYS [I27K] | -0.22 ± 0.13
8 | KYFGTAKARYDFCARDRSELSLKEGDDIKILNKKGQQGWWRGEIYGRVGWFPANYVEEDYS [I27D] | -0.151 ± 0.15
9 | KYFGTAKARYDFCARDRSELSLKEGDHIKILNKKGQQGWWRGEIYGRVGWFPANYVEEDYS [I27H] | -0.14 ± 0.14
10 | KYFGTAKARYDFCARDRSELSLKEGDLIKILNKKGQQGWWRGEIYGRVGWFPANYVEEDYS [I27L] | -0.198 ± 0.076
11 | KYFGTAKARYDFCARDRSELSLKEGDRIKILNKKGQQGWWRGEIYGRVGWFPANYVEEDYS [I27R] | -0.21 ± 0.076
12 | KYFGTAKARYDFCARDRSELSLKEGDEIKILNKKGQQGWWRGEIYGRVGWFPANYVEEDYS [I27E] | -0.154 ± 0.091
13 | KYFGTAKARYDFCARDRSELSLKEGDIVKILNKKGQQGWWRGEIYGRVGWFPANYVEEDYS [I28V] | 0.039 ± 0.06
14 | KYFGTAKARYDFCARDRSELSLKEGDIFKILNKKGQQGWWRGEIYGRVGWFPANYVEEDYS [I28F] | -0.816 ± 0.29
15 | KYFGTAKARYDFCARDRSELSLKEGDISKILNKKGQQGWWRGEIYGRVGWFPANYVEEDYS [I28S] | -0.792 ± 0.29
16 | KYFGTAKARYDFCARDRSELSLKEGDIWKILNKKGQQGWWRGEIYGRVGWFPANYVEEDYS [I28W] | -0.591 ± 0.13
17 | KYFGTAKARYDFCARDRSELSLKEGDIAKILNKKGQQGWWRGEIYGRVGWFPANYVEEDYS [I28A] | -0.662 ± 0.17
18 | KYFGTAKARYDFCARDRSELSLKEGDIRKILNKKGQQGWWRGEIYGRVGWFPANYVEEDYS [I28R] | -1.11 ± 0.28
19 | KYFGTAKARYDFCARDRSELSLKEGDIGKILNKKGQQGWWRGEIYGRVGWFPANYVEEDYS [I28G] | -0.935 ± 0.2
20 | KYFGTAKARYDFCARDRSELSLKEGDIQKILNKKGQQGWWRGEIYGRVGWFPANYVEEDYS [I28Q] | -0.834 ± 0.37
21 | KYFGTAKARYDFCARDRSELSLKEGDITKILNKKGQQGWWRGEIYGRVGWFPANYVEEDYS [I28T] | -0.315 ± 0.17
22 | KYFGTAKARYDFCARDRSELSLKEGDICKILNKKGQQGWWRGEIYGRVGWFPANYVEEDYS [I28C] | -0.436 ± 0.21

Row | Variant | abundance fitness
23 | KYFGTAKARYDFCARDRSELSLKEGDIMKILNKKGQQGWWRGEIYGRVGWFPANYVEEDYS [I28M] | -0.593 ± 0.22
24 | KYFGTAKARYDFCARDRSELSLKEGDIDKILNKKGQQGWWRGEIYGRVGWFPANYVEEDYS [I28D] | -0.944 ± 0.35
25 | KYFGTAKARYDFCARDRSELSLKEGDILKILNKKGQQGWWRGEIYGRVGWFPANYVEEDYS [I28L] | -0.412 ± 0.11
26 | KYFGTAKARYDFCARDRSELSLKEGDIPKILNKKGQQGWWRGEIYGRVGWFPANYVEEDYS [I28P] | -0.811 ± 0.38
27 | KYFGTAKARYDFCARDRSELSLKEGDIIVILNKKGQQGWWRGEIYGRVGWFPANYVEEDYS [K29V] | -0.376 ± 0.074
28 | KYFGTAKARYDFCARDRSELSLKEGDIILILNKKGQQGWWRGEIYGRVGWFPANYVEEDYS [K29L] | -0.068 ± 0.053
29 | KYFGTAKARYDFCARDRSELSLKEGDIISILNKKGQQGWWRGEIYGRVGWFPANYVEEDYS [K29S] | -0.092 ± 0.069
30 | KYFGTAKARYDFCARDRSELSLKEGDIIMILNKKGQQGWWRGEIYGRVGWFPANYVEEDYS [K29M] | -0.095 ± 0.099
31 | KYFGTAKARYDFCARDRSELSLKEGDIITILNKKGQQGWWRGEIYGRVGWFPANYVEEDYS [K29T] | -0.103 ± 0.088
32 | KYFGTAKARYDFCARDRSELSLKEGDIIHILNKKGQQGWWRGEIYGRVGWFPANYVEEDYS [K29H] | -0.082 ± 0.11
33 | KYFGTAKARYDFCARDRSELSLKEGDIIPILNKKGQQGWWRGEIYGRVGWFPANYVEEDYS [K29P] | -0.462 ± 0.14
34 | KYFGTAKARYDFCARDRSELSLKEGDIIAILNKKGQQGWWRGEIYGRVGWFPANYVEEDYS [K29A] | -0.225 ± 0.089
35 | KYFGTAKARYDFCARDRSELSLKEGDIICILNKKGQQGWWRGEIYGRVGWFPANYVEEDYS [K29C] | -0.467 ± 0.14
36 | KYFGTAKARYDFCARDRSELSLKEGDIIFILNKKGQQGWWRGEIYGRVGWFPANYVEEDYS [K29F] | -0.483 ± 0.12
37 | KYFGTAKARYDFCARDRSELSLKEGDIINILNKKGQQGWWRGEIYGRVGWFPANYVEEDYS [K29N] | -0.033 ± 0.1
38 | KYFGTAKARYDFCARDRSELSLKEGDIIIILNKKGQQGWWRGEIYGRVGWFPANYVEEDYS [K29I] | -0.391 ± 0.15
39 | KYFGTAKARYDFCARDRSELSLKEGDIIYILNKKGQQGWWRGEIYGRVGWFPANYVEEDYS [K29Y] | -0.217 ± 0.18
40 | KYFGTAKARYDFCARDRSELSLKEGDIIGILNKKGQQGWWRGEIYGRVGWFPANYVEEDYS [K29G] | -0.281 ± 0.088
41 | KYFGTAKARYDFCARDRSELSLKEGDIIQILNKKGQQGWWRGEIYGRVGWFPANYVEEDYS [K29Q] | -0.265 ± 0.1
42 | KYFGTAKARYDFCARDRSELSLKEGDIIEILNKKGQQGWWRGEIYGRVGWFPANYVEEDYS [K29E] | -0.493 ± 0.12
43 | KYFGTAKARYDFCARDRSELSLKEGDIIWILNKKGQQGWWRGEIYGRVGWFPANYVEEDYS [K29W] | -0.4 ± 0.1
44 | KYFGTAKARYDFCARDRSELSLKEGDIIDILNKKGQQGWWRGEIYGRVGWFPANYVEEDYS [K29D] | -0.229 ± 0.23

— the Human Domainome abundance scans (Beltran et al. 2025)
